Kd data for 2 substances are collected here from US20240417458A1.

The target in this experiment is FcRn. The experiment in a line: SPR (BIAcore) at pH 6.0.
Chain of FcRn (P55899 24-297, chain 1 of 2): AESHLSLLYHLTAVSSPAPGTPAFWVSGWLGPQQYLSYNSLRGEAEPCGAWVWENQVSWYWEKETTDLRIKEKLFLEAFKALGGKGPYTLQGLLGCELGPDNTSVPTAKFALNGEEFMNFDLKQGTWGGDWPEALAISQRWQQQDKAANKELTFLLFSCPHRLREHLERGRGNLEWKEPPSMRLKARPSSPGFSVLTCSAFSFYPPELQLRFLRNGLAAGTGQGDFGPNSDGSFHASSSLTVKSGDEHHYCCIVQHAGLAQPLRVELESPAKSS
Chain of FcRn (P61769 21-119, chain 2 of 2, further chain): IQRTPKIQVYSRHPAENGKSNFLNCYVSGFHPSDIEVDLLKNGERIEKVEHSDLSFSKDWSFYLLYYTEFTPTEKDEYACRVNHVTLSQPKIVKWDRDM

Take Non-specific IgG4 (antibody): the Kd amounted to 3.64 µM.

Take Non-specific IgG1 (antibody): the Kd was determined as 1.64 µM.
